Article PMC10425521, “Crosstalk between glucocorticoid and mineralocorticoid receptors boosts glucocorticoid-induced killing of multiple myeloma cells” (Cellular and Molecular Life Sciences: CMLS, 2023)

Legend:
[1] = target: T1, LgBiT-MR (mineralocorticoid receptor with LgBiT at the N-terminus) (UniProt P08235 1-984); assay: split reporter (BiFC, NanoBiT); NanoBiT in intact HEK293T cells, Dex (10^-6 M) added after baseline, luminescence over 60 min, normalised to baseline and given as fold versus solvent; conditions: partners not purified
T1 construct: mineralocorticoid receptor (MR, NR3C2); NanoBiT fusion; also called pLgBiT-MR; source: HEK293T, transfected (calcium phosphate), in intact cells; not shown: LgBiT, N-terminal, kept
T1 sequence (looked up): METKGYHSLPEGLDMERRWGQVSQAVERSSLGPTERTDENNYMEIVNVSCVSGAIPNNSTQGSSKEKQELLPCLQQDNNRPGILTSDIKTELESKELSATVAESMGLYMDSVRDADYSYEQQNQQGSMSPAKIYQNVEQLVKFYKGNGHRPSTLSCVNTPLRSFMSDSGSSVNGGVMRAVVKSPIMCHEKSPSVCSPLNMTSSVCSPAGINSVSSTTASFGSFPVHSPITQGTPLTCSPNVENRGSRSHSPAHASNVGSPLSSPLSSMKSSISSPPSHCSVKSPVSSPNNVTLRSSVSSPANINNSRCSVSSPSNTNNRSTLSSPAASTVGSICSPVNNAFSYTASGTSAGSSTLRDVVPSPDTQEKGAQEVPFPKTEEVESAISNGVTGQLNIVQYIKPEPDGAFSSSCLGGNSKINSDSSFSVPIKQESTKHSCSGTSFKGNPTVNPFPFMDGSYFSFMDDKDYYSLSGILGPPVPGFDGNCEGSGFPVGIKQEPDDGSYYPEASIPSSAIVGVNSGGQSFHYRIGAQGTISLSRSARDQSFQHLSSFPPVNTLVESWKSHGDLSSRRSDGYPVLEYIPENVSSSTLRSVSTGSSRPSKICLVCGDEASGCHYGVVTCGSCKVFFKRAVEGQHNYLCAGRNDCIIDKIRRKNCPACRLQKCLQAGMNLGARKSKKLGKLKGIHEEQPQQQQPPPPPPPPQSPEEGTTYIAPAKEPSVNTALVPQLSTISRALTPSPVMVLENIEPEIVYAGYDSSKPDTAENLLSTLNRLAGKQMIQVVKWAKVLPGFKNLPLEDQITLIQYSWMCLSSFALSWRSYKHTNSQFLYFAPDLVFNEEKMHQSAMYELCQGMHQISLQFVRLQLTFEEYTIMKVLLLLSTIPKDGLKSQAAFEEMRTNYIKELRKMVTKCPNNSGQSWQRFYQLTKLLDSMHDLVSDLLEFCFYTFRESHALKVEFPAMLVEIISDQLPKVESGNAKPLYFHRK

[2] = target: T1, LgBiT-MR (mineralocorticoid receptor …); assay: split reporter (BiFC, NanoBiT); NanoBiT in intact HEK293T cells, Dex (10^-6 M) together with Spi (10^-5 M) added after baseline, luminescence over 60 min, normalised to baseline and given as fold versus solvent; conditions: partners not purified

- fold induction of NanoBiT luminescence versus solvent (with Dex) [1]: ~8 fold
- fold induction of NanoBiT luminescence versus solvent (with Dex and Spi) [2]: ~6 fold
B1: GR-SmBiT (glucocorticoid receptor with SmBiT at the C-terminus) (receptor, UniProt P04150 1-777, looked up)
chain: MDSKESLTPGREENPSSVLAQERGDVMDFYKTLRGGATVKVSASSPSLAVASQSDSKQRRLLVDFPKGSVSNAQQPDLSKAVSLSMGLYMGETETKVMGNDLGFPQQGQISLSSGETDLKLLEESIANLNRSTSVPENPKSSASTAVSAAPTEKEFPKTHSDVSSEQQHLKGQTGTNGGNVKLYTTDQSTFDILQDLEFSSGSPGKETNESPWRSDLLIDENCLLSPLAGEDDSFLLEGNSNEDCKPLILPDTKPKIKDNGDLVLSSPSNVTLPQVKTEKEDFIELCTPGVIKQEKLGTVYCQASFPGANIIGNKMSAISVHGVSTSGGQMYHYDMNTASLSQQQDQKPIFNVIPPIPVGSENWNRCQGSGDDNLTSLGTLNFPGRTVFSNGYSSPSMRPDVSSPPSSSSTATTGPPPKLCLVCSDEASGCHYGVLTCGSCKVFFKRAVEGQHNYLCAGRNDCIIDKIRRKNCPACRYRKCLQAGMNLEARKTKKKIKGIQQATTGVSQETSENPGNKTIVPATLPQLTPTLVSLLEVIEPEVLYAGYDSSVPDSTWRIMTTLNMLGGRQVIAAVKWAKAIPGFRNLHLDDQMTLLQYSWMFLMAFALGWRSYRQSSANLLCFAPDLIINEQRMTLPCMYDQCKHMLYVSSELHRLQVSYEEYLCMKTLLLLSSVPKDGLKSQELFDEIRMTYIKELGKAIVKREGNSSQNWQRFYQLTKLLDSMHEVVENLLNYCFQTFLDKTMSIEFPEMLAEIITNQIPKYSNGNIKKLLFHQK
notes: glucocorticoid receptor (GR, NR3C1); NanoBiT fusion; also called pGR-SmBiT; source: HEK293T, transfected (calcium phosphate), in intact cells; not shown: SmBiT, C-terminal, kept
